Experimental findings from publication PMC3438978 are described below.

One test addresses derCD23 (monomeric CD23 protein) (human) (UniProt P06734). The experiment in a line: SPR. (In general: In SPR one partner is held on a chip, and binding of the other changes the refractive index at the surface.)
Sequence of UniProt P06734 (P06734 156-298): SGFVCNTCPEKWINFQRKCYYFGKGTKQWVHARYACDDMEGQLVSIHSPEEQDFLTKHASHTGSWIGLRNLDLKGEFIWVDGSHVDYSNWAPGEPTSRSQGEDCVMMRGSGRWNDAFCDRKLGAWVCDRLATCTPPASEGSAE
Take “Recombinant human IgE-Fc (composed of domains Cϵ2-Cϵ4) (domain or fragment)”: the Kd – broadly, a measure of binding affinity in units of concentration – turned out to be 2.4 µM.

A further test has as its target Recombinant human IgE-Fc (composed of domains Cϵ2-Cϵ4) (human). The experiment in a line: SPR.
Take “derCD23 L226A (from UniProt P06734 1-321) (domain or fragment)”: the Kd stood at 6.6 µM.

As to “derCD23 R188A (from UniProt P06734 1-321) (domain or fragment)”, the Kd stood at 25 µM.

In the case of “derCD23 D236A (from UniProt P06734 1-321) (domain or fragment)”, the Kd came out at 5.8 µM.

In the case of derCD23 E265A (domain or fragment), the Kd was determined as 2.5 µM.

As for “derCD23 Y189A (from UniProt P06734 1-321) (domain or fragment)”, the Kd amounted to 15.6 µM.

Take “derCD23 E257A (from UniProt P06734 1-321) (domain or fragment)”: the Kd turned out to be 26.7 µM.

“derCD23 (monomeric CD23 protein) (from UniProt P06734 156-298) (domain or fragment)”: the Kd amounted to 2.3 µM.

As for “derCD23 D192A (from UniProt P06734 1-321) (domain or fragment)”, the Kd turned out to be 4.3 µM.

For the substance “derCD23 K276A (from UniProt P06734 1-321) (domain or fragment)”, the Kd came to 10.9 µM.

Take “derCD23 D227A (from UniProt P06734 1-321) (domain or fragment)”: the Kd amounted to 30.9 µM.

Regarding “derCD23 R224A (from UniProt P06734 1-321) (domain or fragment)”, the Kd was determined as 26.2 µM.

Another test concerns the target derCD23 (monomeric CD23 protein) (human) (UniProt P06734). The experiment in a line: SPR. This is another data set of the same source.
IgE-Fc R376A (domain or fragment) yielded a Kd of 19.7 µM.

Substance IgE-Fc E412A (domain or fragment) had a Kd of 24.2 µM.

As for IgE-Fc Q535A (domain or fragment), the Kd is 2.5 µM.

IgE-Fc K380A (domain or fragment): the Kd is 13.3 µM.

IgE-Fc Q538A (domain or fragment) returned a Kd of 2.4 µM.

As to “Recombinant human IgE-Fc (composed of domains Cϵ2-Cϵ4) (domain or fragment)”, the Kd was determined as 2.3 µM.

Regarding IgE-Fc K435A (domain or fragment), the equilibrium dissociation constant (Kd) amounted to 5 µM.

In turn, IgE-Fc D347A (domain or fragment) returned a Kd of 2.5 µM.

In the case of IgE-Fc K352A (domain or fragment), the Kd was determined as 3.8 µM.

IgE-Fc D409A (domain or fragment) showed a Kd of 26.3 µM.

Take IgE-Fc R351A (domain or fragment): the Kd is 2.6 µM.

Substance IgE-Fc P439A (domain or fragment) showed a Kd of 2.5 µM.

In a further test the target is Recombinant human IgE-Fc (composed of domains Cϵ2-Cϵ4) (human). Kind of test: SPR. The source holds these as a separate data set.
“derCD23 (monomeric CD23 protein) (from UniProt P06734 156-298) (domain or fragment)”: the Kd worked out at 2.3 µM.
